The text below walks through data of IntAct's records for PubMed 24510904.

B1: BAG family molecular chaperone regulator 5 (Homo sapiens), Q9UL15 (parent)
chain: MDMGNQHPSISRLQEIQKEVKSVEQQVIGFSGLSDDKNYKKLERILTKQLFEIDSVDTEGKGDIQQARKRAAQETERLLKELEQNANHPHRIEIQNIFEEAQSLVREKIVPFYNGGNCVTDEFEEGIQDIILRLTHVKTGGKISLRKARYHTLTKICAVQEIIEDCMKKQPSLPLSEDAHPSVAKINFVMCEVNKARGVLIALLMGVNNNETCRHLSCVLSGLIADLDALDVCGRTEIRNYRREVVEDINKLLKYLDLEEEADTTKAFDLRQNHSILKIEKVLKRMREIKNELLQAQNPSELYLSSKTELQGLIGQLDEVSLEKNPCIREARRRAVIEVQTLITYIDLKEALEKRKLFACEEHPSHKAVWNVLGNLSEIQGEVLSFDGNRTDKNYIRLEELLTKQLLALDAVDPQGEEKCKAARKQAVRLAQNILSYLDLKSDEWEY
B2: Ras-related protein Rab-7L1 (Homo sapiens), O14966 (parent)
chain: MGSRDHLFKVLVVGDAAVGKTSLVQRYSQDSFSKHYKSTVGVDFALKVLQWSDYEIVRLQLWDIAGQERFTSMTRLYYRDASACVIMFDVTNATTFSNSQRWKQDLDSKLTLPNGEPVPCLLLANKCDLSPWAVSRDQIDRFSKENGFTGWTETSVKENKNINEAMRVLIEKMMRNSTEDIMSLSTQGDYINLQTKSSSWSCC

In the first experiment the parent is B1. Particulars: with lrrk2_human LRRK2, Q5S007.
Sequence of lrrk2_human LRRK2, Q5S007 (Q5S007 whole entry): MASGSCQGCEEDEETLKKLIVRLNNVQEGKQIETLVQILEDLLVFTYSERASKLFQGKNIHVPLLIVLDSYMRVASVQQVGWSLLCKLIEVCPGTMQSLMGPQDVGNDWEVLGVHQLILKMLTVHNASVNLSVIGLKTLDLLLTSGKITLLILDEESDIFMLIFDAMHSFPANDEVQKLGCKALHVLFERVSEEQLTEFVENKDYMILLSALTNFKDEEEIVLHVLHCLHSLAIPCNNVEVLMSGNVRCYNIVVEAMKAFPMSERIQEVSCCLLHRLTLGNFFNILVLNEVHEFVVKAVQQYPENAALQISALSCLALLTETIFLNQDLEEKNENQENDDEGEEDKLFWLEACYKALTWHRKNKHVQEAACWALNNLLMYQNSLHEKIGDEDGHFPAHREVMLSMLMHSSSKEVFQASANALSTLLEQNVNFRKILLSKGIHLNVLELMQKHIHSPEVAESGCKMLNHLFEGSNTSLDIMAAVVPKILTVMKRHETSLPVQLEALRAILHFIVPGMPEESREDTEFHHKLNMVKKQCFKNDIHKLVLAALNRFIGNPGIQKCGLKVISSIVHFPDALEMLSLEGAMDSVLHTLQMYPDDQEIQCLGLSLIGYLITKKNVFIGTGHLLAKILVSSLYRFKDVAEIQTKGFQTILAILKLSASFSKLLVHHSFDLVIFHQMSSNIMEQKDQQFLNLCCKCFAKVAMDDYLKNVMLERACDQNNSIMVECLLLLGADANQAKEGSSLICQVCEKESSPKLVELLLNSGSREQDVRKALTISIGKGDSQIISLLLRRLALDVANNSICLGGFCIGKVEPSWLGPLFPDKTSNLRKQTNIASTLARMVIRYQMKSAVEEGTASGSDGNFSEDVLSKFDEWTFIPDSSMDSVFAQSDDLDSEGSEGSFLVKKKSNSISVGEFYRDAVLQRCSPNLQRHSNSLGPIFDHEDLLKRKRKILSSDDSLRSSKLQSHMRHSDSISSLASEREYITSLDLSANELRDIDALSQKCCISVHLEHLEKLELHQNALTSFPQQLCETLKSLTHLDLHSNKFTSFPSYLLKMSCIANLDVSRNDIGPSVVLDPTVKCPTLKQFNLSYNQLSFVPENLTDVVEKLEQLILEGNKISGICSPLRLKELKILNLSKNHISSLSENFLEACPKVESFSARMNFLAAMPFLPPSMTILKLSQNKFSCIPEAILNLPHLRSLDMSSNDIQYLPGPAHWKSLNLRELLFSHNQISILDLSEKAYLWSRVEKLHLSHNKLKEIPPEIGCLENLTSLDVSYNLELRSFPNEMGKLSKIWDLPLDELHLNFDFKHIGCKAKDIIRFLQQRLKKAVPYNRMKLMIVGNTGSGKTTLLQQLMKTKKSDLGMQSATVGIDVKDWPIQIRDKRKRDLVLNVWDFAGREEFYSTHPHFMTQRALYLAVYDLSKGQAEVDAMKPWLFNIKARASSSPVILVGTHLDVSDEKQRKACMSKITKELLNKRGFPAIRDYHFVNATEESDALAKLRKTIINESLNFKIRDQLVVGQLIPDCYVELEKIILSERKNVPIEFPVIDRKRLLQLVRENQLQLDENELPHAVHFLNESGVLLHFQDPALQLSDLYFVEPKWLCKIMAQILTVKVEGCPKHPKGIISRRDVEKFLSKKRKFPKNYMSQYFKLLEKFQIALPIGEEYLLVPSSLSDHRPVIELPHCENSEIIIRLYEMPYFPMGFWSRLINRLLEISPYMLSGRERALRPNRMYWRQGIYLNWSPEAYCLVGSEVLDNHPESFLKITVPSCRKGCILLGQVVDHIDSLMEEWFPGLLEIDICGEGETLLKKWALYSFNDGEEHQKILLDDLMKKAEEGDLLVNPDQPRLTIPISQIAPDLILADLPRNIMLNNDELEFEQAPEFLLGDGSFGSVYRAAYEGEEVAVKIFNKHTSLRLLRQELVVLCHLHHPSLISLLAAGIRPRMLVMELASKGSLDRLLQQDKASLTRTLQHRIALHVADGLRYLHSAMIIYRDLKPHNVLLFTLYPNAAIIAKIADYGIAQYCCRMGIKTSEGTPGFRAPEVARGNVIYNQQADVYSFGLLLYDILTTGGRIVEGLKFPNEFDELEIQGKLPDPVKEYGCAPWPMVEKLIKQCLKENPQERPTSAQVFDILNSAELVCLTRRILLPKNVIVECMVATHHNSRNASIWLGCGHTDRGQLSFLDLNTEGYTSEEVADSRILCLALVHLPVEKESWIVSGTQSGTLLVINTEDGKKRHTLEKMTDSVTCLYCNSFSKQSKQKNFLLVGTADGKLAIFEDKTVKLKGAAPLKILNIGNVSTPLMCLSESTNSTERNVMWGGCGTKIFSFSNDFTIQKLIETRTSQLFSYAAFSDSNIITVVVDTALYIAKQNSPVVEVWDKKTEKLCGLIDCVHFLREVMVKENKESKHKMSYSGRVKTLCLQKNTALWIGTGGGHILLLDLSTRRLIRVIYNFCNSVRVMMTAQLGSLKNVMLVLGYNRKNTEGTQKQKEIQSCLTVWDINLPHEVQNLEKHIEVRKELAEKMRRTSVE
Regarding MDMGNQHPSISRLQEIQKEVKSVEQQVIGFSGLSDDKNYKKLERILTKQLFEIASVDTEGKGDIQQAAKRAAQETERLLKELEQNANHPHRIEIQNIFEEAQSLVREKIVPFYNGGNCVTDEFEEGIQDIILRLTHVKTGGKISLRKARYHTLTKICAVQEIIEDCMKKQPSLPLSEDAHPSVAKINFVMCEVNKARGVLIALLMGVNNNETCRHLSCVLSGLIADLAALDVCGRTEIRNYAREVVEDINKLLKYLDLEEEADTTKAFDLRQNHSILKIEKVLKRMREIKNELLQAQNPSELYLSSKTELQGLIGQLAEVSLEKNPCIREAARRAVIEVQTLITYIDLKEALEKRKLFACEEHPSHKAVWNVLGNLSEIQGEVLSFDGNRTDKNYIRLEELLTKQLLALAAVDPQGEEKCKAAAKQAVRLAQNILSYLDLKSDEWEY [D54A;R68A;D228A;R242A;D318A;R332A;D410A;R424A], the “effect of a mutation on the interaction” value is on record as “decreasing interaction”.

In another experiment the parent is B2. Particulars: with lrrk2_human LRRK2, Q5S007.
As to MGSRDHLFKVLVVGDAAVGKNSLVQRYSQDSFSKHYKSTVGVDFALKVLQWSDYEIVRLQLWDIAGQERFTSMTRLYYRDASACVIMFDVTNATTFSNSQRWKQDLDSKLTLPNGEPVPCLLLANKCDLSPWAVSRDQIDRFSKENGFTGWTETSVKENKNINEAMRVLIEKMMRNSTEDIMSLSTQGDYINLQTKSSSWSCC [T21N], the “effect of a mutation on the interaction” value is reported as “increasing interaction”. Same read-out and setting: the value for MGSRDHLFKVLVVGDAAVGKTSLVQRYSQDSFSKHYKSTVGVDFALKVLQWSDYEIVRLQLWDIAGLERFTSMTRLYYRDASACVIMFDVTNATTFSNSQRWKQDLDSKLTLPNGEPVPCLLLANKCDLSPWAVSRDQIDRFSKENGFTGWTETSVKENKNINEAMRVLIEKMMRNSTEDIMSLSTQGDYINLQTKSSSWSCC [Q67L] was “increasing interaction”.

Variants of B2 are the subject of another experiment. Particulars: with lrrk2_human LRRK2, Q5S007. The source holds these as a separate data set.
Regarding MGSRDHLFKVLVVGDAAVGKTSLVQRYSQDSFSKHYKSTVGVDFALKVLQWSDYEIVRLQLWDIAGLERFTSMTRLYYRDASACVIMFDVTNATTFSNSQRWKQDLDSKLTLPNGEPVPCLLLANKCDLSPWAVSRDQIDRFSKENGFTGWTETSVKENKNINEAMRVLIEKMMRNSTEDIMSLSTQGDYINLQTKSSSWSCC [Q67L], the “effect of a mutation on the interaction” value is recorded as “disrupting interaction”.
